Where two headings read alike, the source gives them in different places.

Assay [1] has as its target T1, human αVβ6 integrin on cells (human, UniProt P06756 31-1048; P18564 22-788). The assay can be described thus: cell-based or functional assay.
The target in assay [2] is human αV on parental A375M cells (αVβ3 and αVβ5 integrins) (human, UniProt P06756 31-1048). As to the kind of experiment: cell-based or functional assay.
Assay [3] concerns the target T2, α4β1 integrin on J6.77 cells (UniProt P13612 34-1032; P05556 21-798). The assay can be described thus: cell-based or functional assay.
For assay [4], the target named is T1, human αVβ6 integrin on cells. As to the kind of experiment: cell-based or functional assay. The source holds these as a separate data set.
In assay [5] the target is T3, α5β1 integrin on K562 cells (UniProt P08648 42-1049; P05556 21-798). As to the kind of experiment: cell-based or functional assay.
The target in assay [6] is T4, mouse αV on transfected HEK-293 cells (mouse, UniProt P43406 31-1044).
T4 construct: whole, on cells; Transfected alone into human HEK-293 cells; also called Mouse alpha V
As to the kind of experiment: FACS, purified mAb, transfected HEK-293 (parental: 49). (In general: In flow cytometry, cells or beads pass a laser one at a time.)

The target in assay [7] is T1, human αVβ6 integrin on cells. As to the kind of experiment: FMAT, supernatant, HEK 293 cells stably overexpressing αVβ6.
Assay [8] shares this target. As to the kind of experiment: cell-based or functional assay. This is another data set of the same source.
In assay [9] the target is T3, α5β1 integrin on K562 cells. The assay can be described thus: cell-based or functional assay. This is another data set of the same source.
For assay [10], the target named is T5, cynomolgus αVβ6 on cells (cynomolgus).
T5 construct: whole, on cells; also called macaque αVβ6; Mac AVB6
The assay can be described thus: FACS, supernatant, HEK-293 transfected with cynomolgus αV and β6.

The target in assay [11] is T5, cynomolgus αVβ6 on cells. As to the kind of experiment: FACS, purified mAb, transfected HEK-293 (parental: 74).
Assay [12] has as its target T6, cynomolgus αV on transfected HEK-293 cells (cynomolgus).
T6 construct: whole, on cells; Transfected alone into human HEK-293 cells; also called Cynomolgus alphaV
The description is as above.

For assay [13], the target named is T4, mouse αV on transfected HEK-293 cells. Described as above.
Assay [14] deals with T2, α4β1 integrin on J6.77 cells. The assay can be described thus: cell-based or functional assay. This is another data set of the same source.

T3 sequence (P08648 42-1049, chain 1 of 2): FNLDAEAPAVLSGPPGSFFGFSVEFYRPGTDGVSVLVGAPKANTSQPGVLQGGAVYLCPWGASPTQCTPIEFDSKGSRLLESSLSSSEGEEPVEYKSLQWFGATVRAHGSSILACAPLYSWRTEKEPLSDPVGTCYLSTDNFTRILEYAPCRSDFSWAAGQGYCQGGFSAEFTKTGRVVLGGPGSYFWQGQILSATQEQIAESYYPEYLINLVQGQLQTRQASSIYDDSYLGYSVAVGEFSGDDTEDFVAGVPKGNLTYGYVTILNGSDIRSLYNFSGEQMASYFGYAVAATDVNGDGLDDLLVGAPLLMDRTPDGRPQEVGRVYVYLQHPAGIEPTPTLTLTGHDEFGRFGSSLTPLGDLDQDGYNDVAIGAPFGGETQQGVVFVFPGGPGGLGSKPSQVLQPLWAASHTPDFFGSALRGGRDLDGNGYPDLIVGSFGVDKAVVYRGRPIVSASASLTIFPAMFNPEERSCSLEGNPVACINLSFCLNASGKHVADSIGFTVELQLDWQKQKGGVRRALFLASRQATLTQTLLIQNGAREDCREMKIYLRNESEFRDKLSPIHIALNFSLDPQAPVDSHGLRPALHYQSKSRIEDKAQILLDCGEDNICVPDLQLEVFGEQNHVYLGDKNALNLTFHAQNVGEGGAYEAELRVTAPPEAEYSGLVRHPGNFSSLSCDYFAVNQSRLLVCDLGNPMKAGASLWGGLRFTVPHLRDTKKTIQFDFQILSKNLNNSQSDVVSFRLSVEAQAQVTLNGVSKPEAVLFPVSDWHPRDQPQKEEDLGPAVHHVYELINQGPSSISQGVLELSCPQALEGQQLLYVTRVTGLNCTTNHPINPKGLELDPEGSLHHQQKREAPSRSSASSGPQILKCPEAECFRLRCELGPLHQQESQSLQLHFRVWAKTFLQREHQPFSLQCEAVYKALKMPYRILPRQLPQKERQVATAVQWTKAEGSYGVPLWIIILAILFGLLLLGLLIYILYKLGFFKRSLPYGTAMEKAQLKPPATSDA
T3 sequence (P05556 21-798, chain 2 of 2): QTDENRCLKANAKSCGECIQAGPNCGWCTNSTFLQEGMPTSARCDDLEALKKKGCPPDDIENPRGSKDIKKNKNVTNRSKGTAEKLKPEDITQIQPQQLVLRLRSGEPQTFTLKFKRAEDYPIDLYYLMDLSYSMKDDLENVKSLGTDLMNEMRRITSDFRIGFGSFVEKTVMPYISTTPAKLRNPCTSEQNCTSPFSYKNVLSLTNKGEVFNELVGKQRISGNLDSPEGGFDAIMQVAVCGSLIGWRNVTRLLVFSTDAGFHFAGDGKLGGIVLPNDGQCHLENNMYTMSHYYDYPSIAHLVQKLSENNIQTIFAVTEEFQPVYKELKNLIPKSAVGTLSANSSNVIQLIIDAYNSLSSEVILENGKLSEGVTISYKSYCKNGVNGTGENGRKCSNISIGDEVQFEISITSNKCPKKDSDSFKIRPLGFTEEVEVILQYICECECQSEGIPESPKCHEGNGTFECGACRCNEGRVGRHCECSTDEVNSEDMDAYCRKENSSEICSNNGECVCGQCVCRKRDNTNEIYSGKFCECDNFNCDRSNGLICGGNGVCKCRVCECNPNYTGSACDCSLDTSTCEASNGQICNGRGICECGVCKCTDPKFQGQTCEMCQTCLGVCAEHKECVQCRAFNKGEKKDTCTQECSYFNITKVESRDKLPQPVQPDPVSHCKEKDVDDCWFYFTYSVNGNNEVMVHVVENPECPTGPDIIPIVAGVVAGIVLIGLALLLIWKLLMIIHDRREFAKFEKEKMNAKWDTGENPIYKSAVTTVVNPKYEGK
T1 sequence (P06756 31-1048, chain 1 of 2): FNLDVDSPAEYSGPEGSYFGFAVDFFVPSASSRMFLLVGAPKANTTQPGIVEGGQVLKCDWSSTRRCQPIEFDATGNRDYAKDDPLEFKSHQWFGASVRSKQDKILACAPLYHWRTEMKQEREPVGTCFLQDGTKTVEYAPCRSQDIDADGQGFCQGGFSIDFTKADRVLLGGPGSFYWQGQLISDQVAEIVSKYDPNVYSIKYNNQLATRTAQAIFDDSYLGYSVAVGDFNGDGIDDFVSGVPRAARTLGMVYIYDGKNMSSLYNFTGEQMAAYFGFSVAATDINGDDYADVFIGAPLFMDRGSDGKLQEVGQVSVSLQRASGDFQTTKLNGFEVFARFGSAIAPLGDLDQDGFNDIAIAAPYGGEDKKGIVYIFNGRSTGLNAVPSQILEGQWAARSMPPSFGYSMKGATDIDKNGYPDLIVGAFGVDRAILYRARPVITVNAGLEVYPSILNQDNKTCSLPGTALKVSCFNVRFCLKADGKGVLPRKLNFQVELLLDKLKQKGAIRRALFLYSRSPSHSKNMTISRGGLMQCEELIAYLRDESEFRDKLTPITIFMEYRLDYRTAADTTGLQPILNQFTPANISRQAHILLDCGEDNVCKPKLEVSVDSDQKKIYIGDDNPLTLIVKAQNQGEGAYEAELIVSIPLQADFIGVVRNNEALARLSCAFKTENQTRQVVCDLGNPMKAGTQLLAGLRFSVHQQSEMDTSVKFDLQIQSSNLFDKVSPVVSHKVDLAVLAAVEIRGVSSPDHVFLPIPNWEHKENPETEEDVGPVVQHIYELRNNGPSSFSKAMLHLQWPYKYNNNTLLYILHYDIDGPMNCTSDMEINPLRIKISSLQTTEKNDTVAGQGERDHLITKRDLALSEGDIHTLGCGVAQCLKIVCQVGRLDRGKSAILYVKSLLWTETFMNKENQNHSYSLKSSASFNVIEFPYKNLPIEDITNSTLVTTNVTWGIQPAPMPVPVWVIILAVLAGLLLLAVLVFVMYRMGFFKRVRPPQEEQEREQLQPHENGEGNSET
T1 sequence (P18564 22-788, chain 2 of 2): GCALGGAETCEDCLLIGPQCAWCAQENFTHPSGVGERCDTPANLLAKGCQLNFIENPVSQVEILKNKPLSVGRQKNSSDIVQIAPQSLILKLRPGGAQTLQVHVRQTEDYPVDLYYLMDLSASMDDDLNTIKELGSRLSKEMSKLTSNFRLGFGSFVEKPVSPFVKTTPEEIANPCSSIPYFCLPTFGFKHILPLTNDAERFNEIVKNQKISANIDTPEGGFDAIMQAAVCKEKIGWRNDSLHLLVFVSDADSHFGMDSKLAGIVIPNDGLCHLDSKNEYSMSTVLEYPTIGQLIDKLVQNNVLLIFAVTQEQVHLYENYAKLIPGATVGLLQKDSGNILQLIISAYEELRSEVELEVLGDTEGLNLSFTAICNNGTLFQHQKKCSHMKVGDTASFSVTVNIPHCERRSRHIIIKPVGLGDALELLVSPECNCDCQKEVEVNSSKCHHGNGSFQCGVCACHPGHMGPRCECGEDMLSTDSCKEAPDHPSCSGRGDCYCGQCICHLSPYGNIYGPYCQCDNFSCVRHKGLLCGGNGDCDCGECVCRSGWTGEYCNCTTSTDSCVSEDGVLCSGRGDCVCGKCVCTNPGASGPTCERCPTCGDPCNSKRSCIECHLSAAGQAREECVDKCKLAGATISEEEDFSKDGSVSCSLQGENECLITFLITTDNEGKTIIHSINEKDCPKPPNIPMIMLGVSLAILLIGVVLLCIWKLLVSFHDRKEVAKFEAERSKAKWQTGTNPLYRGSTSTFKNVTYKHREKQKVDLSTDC
T4 sequence (P43406 31-1044): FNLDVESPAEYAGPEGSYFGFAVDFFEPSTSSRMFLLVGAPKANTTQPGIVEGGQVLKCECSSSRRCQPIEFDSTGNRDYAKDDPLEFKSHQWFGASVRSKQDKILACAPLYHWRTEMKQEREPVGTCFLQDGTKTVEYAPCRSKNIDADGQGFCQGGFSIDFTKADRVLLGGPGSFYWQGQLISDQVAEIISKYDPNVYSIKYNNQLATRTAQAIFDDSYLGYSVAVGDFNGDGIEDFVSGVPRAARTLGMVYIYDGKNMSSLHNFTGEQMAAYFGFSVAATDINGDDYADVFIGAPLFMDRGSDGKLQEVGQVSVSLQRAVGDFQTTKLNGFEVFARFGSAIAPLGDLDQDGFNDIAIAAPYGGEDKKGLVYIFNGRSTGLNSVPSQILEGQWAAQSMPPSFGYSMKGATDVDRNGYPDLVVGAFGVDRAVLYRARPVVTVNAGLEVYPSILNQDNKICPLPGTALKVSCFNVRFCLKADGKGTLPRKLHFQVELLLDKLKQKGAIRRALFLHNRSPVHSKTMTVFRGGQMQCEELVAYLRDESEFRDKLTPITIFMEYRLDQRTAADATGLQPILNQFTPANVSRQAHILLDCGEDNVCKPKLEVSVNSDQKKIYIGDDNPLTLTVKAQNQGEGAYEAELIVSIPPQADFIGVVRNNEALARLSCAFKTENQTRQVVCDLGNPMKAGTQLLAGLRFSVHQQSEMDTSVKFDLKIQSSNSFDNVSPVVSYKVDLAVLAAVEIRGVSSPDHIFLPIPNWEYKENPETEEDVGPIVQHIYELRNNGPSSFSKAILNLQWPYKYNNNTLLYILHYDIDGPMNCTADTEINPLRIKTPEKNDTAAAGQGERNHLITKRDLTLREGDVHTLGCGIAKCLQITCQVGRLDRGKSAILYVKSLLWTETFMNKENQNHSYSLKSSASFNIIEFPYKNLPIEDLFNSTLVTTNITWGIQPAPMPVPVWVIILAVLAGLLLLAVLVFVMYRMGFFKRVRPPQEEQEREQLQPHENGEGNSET
human αV on parental A375M cells (αVβ3 and αVβ5 integrins), sequence (P06756 31-1048 A375M, form in doubt): as the sequence (P06756 31-1048, chain 1 of 2) above, with A345M counted along it

B1: sc 298 (antibody, V domains shown)
VH: QVQLVESGGGVVQPGRSLRLSCAASGFTFSSYGMHWVRQAPGKGLEWVAVIWYGGSNKYYADSVKGRFTISRDNSKNTLYLQMNSLRAEDTAVYYCARDLAARRGDYYYYGMDVWGQGTTVTVSS
VL: SSELTQDPVVSVALGQTVRITCQGDSLRSYYLSWYQQKPGQAPVLVIYGKNNRPSGIPDRFSGSNSGNTASLTITGAQAEDEADYYCNSRDSSGNHLFGGGTKLTVL
notes: lambda light chain
As to B1, in assay [1], the “Percent Internalization, 1 ug/mL” value amounted to 26% and the “Percent Internalization, 10 ug/mL” value amounted to 28%. The “Percent Inhibition of A375M adhesion to osteopontin peptide, 5 ug/ml” value in assay [2] was 9%. In addition, the “Percent Inhibition of J6.77 adhesion to CS-1 peptide, 5 ug/ml” value in [3] was -7%. In addition, in assay [4], the “Estimated IC50, adhesion assay, n = 1” value is 0.029 µg/mL; the “Estimated IC50, adhesion assay, n = 2” value is 0.025 µg/mL; the “Estimated IC50, adhesion assay, n = 3” value is 0.033 µg/mL. The “Percent Inhibition of K562 adhesion to FN9-10, 5 ug/ml” value in [5] is 2%. Also, the “percent of cells shifted” value in assay [6] was 45%. In addition, the “FMAT FL1XCount” value in [7] was determined as 218000. In assay [8], the “Assay 1 % Inhibition of adhesion” value came to 98%, the “Assay 2 % Inhibition of adhesion” value was determined as 102% and the “Average % Inhibition of adhesion” value was determined as 100%.

B2: sc 264 (antibody, V domains shown)
VH: QVQLQESGPGLVKPSQTLSLTCTVSGGSISSGGYYWSWIRQHPGKGLEWIGYIYYSGRTYNNPSLKSRVTISVDTSKNQFSLKLSSVTAADTAVYYCARVATGRGDYHFYAMDVWGQGTTVTVSS
VL: SYELTQPSSVSVSPGQTARITCSGDVLAKKSARWFHQKPGQAPVLVIYKDSERPSGIPERFSGSSSGTTVTLTISGAQVEDEAAYYCYSAADNNLVFGGGTKLTVL
notes: lambda light chain
On to B2, for which the “% Inhibition of K562 adhesion to fibronectin” value in assay [9] stood at 3%. Also, the “Percent Inhibition of A375M adhesion to osteopontin peptide, 5 ug/ml” value in assay [2] stood at 3%. In addition, the “% Cells Shifted” value with cynomolgus αVβ6 on cells [10] was determined as 55%. This molecule gave a GeoMean with cynomolgus αVβ6 on cells [10] of 66.4. The “Percent Inhibition of J6.77 adhesion to CS-1 peptide, 5 ug/ml” value is -8% in assay [3] and -30% in [14]. Further, the “Percent Inhibition of K562 adhesion to FN9-10, 5 ug/ml” value in assay [5] is -4%. Moreover, the “percent of cells shifted” value with cynomolgus αVβ6 on cells [11] amounted to 54%; in assay [12] it was 70%; in assay [13] it was 71%.

The values above are taken from US20160319032A1 (MEDLMMUNE, published 2016).
